Earlier results on one molecule are cited in patent publication US20240209047A1, “GROWTH FACTOR CONJUGATES” (priority 2021, published 2024).

The data set relates to non-healing diabetic ulcers. The conditions noted are these: treated for 20 weeks or until complete wound closure; placebo 25%.

B1: PDGF: topical gel containing recombinant human PDGF-BB (Regranex®) (protein, UniProt P01127 82-190, looked up)
Platelet-derived growth …: SLGSLTIAEPAMIAECKTRTEVFEISRRLIDRTNANFLVWPPCVEVQRCSGCCNNRNVQCRPTQVQLRPVQVRKIEIVRKKPIFKKATVTLEDHLACKCETVAAARPVT
modifications: Platelet-derived growth factor subunit B topical gel (becaplermin)
For the molecule B1, the patients healed was 48%.
